Reference: patent US20070299011A1 (TSINGHUA UNIVERSITY, published 2007)

Target: T1, myc-tagged APP-AICD(C99) (UniProt P05067 672-770)
T1 construct: domain: APP-AICD(C99); also called APP-AID(C99); not shown: myc tag
Test: co-IP from 293T lysate: anti-myc IP, anti-HA Western blot

binding result: binds
B1: HA-168 deletion mutant 118-264AA (other)
chain: GHPPTALESVMLGVGSRSVAGVCMSPITVIKTRYESGKYGYESIYAALRSIYHSEGHRGLFSGLTATLLRDAPFSGIYLMFYNQTKNIVPHDQVDATLIPITNFSCGIFAGILASLVTQPAGVIKTHMQLYPLKFQWIGQAVTLIFK
notes: not shown: HA tag
